Results published in PMC3094755.
Values joined by “and” are separate entries in the source; they are usually repeats but may differ in a detail not shown here. Equal entries are not always repeated.

Target: PARP-1 F1 (Homo sapiens) (UniProt P09874)
Experiment: fluorescence anisotropy
Conditions: 5'-phosphate; FA: 50 mM Tris-HCl pH 7, 150 uM ZnSO4, 4 mM DTT, 0-200 mM NaCl, 25 C, 10 nM DNA (mutants 25 nM DNA, 25 mM NaCl); EMSA: 50 mM Tris-HCl pH 7.4, 150 uM ZnSO4, 4 mM

PARP-1 F1 (Homo sapiens), sequence (P09874 1-108): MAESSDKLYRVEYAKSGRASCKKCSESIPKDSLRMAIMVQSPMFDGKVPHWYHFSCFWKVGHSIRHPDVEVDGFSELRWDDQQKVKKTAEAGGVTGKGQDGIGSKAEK

For “CGGTCGATCGTAAGATCGACCGGCGCTGGAGCTTGCTCCAGCGC [44-nt nicked dumbbell, 5'-phosphate, fluorescein-dT]”, the Kd was 6.6 µM and 1.1 µM.
